Experimental data published in article PMC11828871, “Structural basis of anticancer drug recognition and amino acid transport by LAT1” (Nature Communications, 2025).

Tests used:
[1] = target: T1, LAT1–CD98hc heterodimeric complex (human, UniProt Q01650;P08195); experiment: cryo-EM structure; LAT1–CD98hc in lipid nanodiscs (POPC:POPG:cholesterol 2:2:1, MSP2N2) complexed with Fab170, gel filtration; SEC buffer 20 mM Tris-HCl pH 9.0, 150 mM NaCl; with JPH203, L-Phe, melphalan, BCH, T3 or no ligand; details: both partners purified
T1 construct: LAT1 (SLC7A5), human; as the chain of m1; CD98hc (4F2hc; SLC3A2), human; as the chain of m2
T1 sequence (Q01650 whole entry, chain 1 of 2): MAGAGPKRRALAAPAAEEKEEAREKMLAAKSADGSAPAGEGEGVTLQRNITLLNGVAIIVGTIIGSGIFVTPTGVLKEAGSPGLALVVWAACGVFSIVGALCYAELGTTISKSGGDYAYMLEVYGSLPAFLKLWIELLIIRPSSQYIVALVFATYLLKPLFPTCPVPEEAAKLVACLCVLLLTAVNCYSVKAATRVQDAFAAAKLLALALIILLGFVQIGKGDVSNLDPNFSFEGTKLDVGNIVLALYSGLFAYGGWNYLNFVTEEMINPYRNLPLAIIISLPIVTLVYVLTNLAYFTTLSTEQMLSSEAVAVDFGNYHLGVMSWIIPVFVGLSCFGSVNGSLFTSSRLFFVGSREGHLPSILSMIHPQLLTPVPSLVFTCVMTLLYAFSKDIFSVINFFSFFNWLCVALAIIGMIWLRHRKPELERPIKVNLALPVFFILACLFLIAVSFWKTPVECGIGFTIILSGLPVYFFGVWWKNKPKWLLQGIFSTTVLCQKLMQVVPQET
T1 sequence (P08195 102-630, chain 2 of 2): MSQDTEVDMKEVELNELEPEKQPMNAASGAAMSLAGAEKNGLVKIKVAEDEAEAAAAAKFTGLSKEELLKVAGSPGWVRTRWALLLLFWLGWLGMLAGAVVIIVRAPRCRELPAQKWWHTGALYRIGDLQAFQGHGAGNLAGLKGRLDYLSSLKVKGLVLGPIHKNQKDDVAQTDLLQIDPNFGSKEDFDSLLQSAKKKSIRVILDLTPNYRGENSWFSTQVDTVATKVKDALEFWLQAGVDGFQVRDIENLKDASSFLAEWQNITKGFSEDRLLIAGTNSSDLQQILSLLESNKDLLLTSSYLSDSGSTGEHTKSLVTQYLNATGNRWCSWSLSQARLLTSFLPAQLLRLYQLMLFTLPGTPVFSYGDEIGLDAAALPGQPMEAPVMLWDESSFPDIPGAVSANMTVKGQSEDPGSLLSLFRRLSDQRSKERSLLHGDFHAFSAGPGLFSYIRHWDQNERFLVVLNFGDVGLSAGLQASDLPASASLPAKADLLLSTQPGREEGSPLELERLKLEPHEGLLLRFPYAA

[2] = target: T2, CD98hc (4F2hc; SLC3A2) (human, UniProt P08195); experiment: as above; details: both partners purified
T2 construct: CD98hc (4F2hc; SLC3A2), human, single membrane-spanning protein; The complex was purified by GFP-nanotrap and a FLAG-tag purification step was skipped; The TMD-only models hold only TM1' of CD98hc
T2 sequence (P08195 102-630): as the sequence (P08195 102-630, chain 2 of 2) above

- binding result [1]: binds
- binding result [2]: binds
B1: Fab fragment from clone 170 (Fab170) (Fab, V domains shown)
VH: EVQLQQSGAELVKPGASVNLSCKASGYTFTNYWMHWVRLRPGQGLEWIGEIDPSDSYSYYSQNFKGKATLTVDQSSNTAYLQLTSLTSEDSAVYYCARGRQTYYPWFPYWGQGTLVTVSA
VL: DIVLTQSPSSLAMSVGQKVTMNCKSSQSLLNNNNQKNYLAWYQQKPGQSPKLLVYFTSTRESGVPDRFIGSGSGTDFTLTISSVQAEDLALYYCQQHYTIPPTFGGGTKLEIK
notes: Mouse monoclonal antibody raised against liposomes with purified LAT1–CD98hc; source: mouse hybridoma culture supernatant; IgG purified by Protein G column, digested by papain, Fab further purified on Protein A column
